Several values for one entry are separate records, joined by “and”; a condition that tells them apart may be missing. Identical values can stand only once.
B1: 201phi2-1 chimallin (gp105), full length, recombinant (natural protein, bacteriophage 201phi2-1, UniProt B3FIW8 1-631, looked up)
chain: MIRDTATNTTQTQAAPQQAPAQQFTQAPQEKPMQSTQSQPTPSYAGTGGINSQFTRSGNVQGGDARASEALTVFTRLKEQAVAQQDLADDFSILRFDRDQHQVGWSSLVIAKQISLNGQPVIAVRPLILPNNSIELPKRKTNIVNGMQTDVIESDIDVGTVFSAQYFNRLSTYVQNTLGKPGAKVVLAGPFPIPADLVLKDSELQLRNLLIKSVNACDDILALHSGERPFTIAGLKGQQGETLAAKVDIRTQPLHDTVGNPIRADIVVTTQRVRRNGQQENEFYETDVKLNQVAMFTNLERTPQAQAQTLFPNQQQVATPAPWVASVVITDVRNADGIQANTPEMYWFALSNAFRSTHGHAWARPFLPMTGVAKDMKDIGALGWMSALRNRIDTKAANFDDAQFGQLMLSQVQPNPVFQIDLNRMGETAQMDSLQLDAAGGPNAQKAAATIIRQINNLGGGGFERFFDHTTQPILERTGQVIDLGNWFDGDEKRDRRDLDNLAALNAAEGNENEFWGFYGAQLNPNLHPDLRNRQSRNYDRQYLGSTVTYTGKAERCTYNAKFIEALDRYLAEAGLQITMDNTSVLNSGQRFMGNSVIGNNMVSGQAQVHSAYAGTQGFNTQYQTGPSSFY
notes: Cloned in UC Berkeley Macrolab vector 2-BT (Addgene #29666) with a TEV-cleavable His6 tag; tag removed before SEC; also called ChmA; FL; not shown: His6, N-terminal, cleaved
B2: Goslar chimallin (gp189), full length, recombinant (natural protein, bacteriophage Goslar, UniProt A0A482GDX1 1-631, looked up)
chain: MGLDVRNNGNDNVEIRAAETRTAQRADEALETAADFAGQPKVTHTMRTINRTLSRRISRNTGSEQVLNLRRLMEKYLEDTRFKDDFIFVAVDPNQYSVPYPTLVVMSGAKVGDHNHFFGYVLPLVAGLAPLPRREEQGPHGNILVPRTWVDNLNGTFINEVMAAMYAAIGGKSNGTARIAGLAVVTNEITAESAHLATTLLSAADNAIQTAIEIRLGDKLGLPQFNLGMMASDQPISSVQYNTSGMQDSDIVGNPVRSDITVTISNRIRQAMSDYDSQQRLVATTGYIDLTYSPQNPTFNQGPVLVNGYPVPPTVQYQPRYVMTSAYPLELDAFTPNTFVLGLIGTIATLNSGMAWAQSLISNAARGIGPHNPGALAMVLDPEVTAPLDLSTQTNEQIYKFLQQVLYPSLLISIDVPEEGEYSWLLRMIPAAEKIYTGKVEGEVREISEGYKALYRAFDDVTLGCFSKKYQYGLPLVYATGNRIPLGHYNHQDGHRHDIRDMDDLYMMNITNPDTVEAWEDSFDRTDMTMSQRVVARHEIIDRVLSGSWEQTGWAMRYDFDPLALQALIEAAADAGFTIRPENIQHLAGTAVRGNMAARARGLGNISGNIYARSDRPNVGVNNMGGAFNLF
notes: Chimallin (gp189) of E. coli jumbo bacteriophage Goslar, 631 amino acids, NCBI YP_009820873.1; Cloned in UC Berkeley Macrolab vector 2-BT (Addgene #29666) with a TEV-cleavable His6 tag; tag removed before SEC; not shown: His6, N-terminal, cleaved

Target: the molecule itself
Assay: cryo-EM structure; single-particle analysis of the defined assemblies from SEC with localized reconstruction (O, C4, C1); 201phi2-1 about 4 µM monomer, Goslar about 33 µM monomer

Protein | stoichiometry N
B1 | 24 protomers and 40 protomers
B2 | 24 protomers

Source: PMC9365700, “Architecture and self-assembly of the jumbo bacteriophage nuclear shell” (Nature, 2022)
